Data taken from patent US20200087373A1 (UNIVERSITY OF COPENHAGEN, published 2020).
Ends that are not written are not given here. * marks the point of attachment. C16 diacid = O=C(O)CCCCCCCCCCCCCCC(=O)*

T1: human GIP receptor (human, UniProt P48546 22-466)
T1 construct: whole, on cells; also called hGIPR
T1 sequence (looked up): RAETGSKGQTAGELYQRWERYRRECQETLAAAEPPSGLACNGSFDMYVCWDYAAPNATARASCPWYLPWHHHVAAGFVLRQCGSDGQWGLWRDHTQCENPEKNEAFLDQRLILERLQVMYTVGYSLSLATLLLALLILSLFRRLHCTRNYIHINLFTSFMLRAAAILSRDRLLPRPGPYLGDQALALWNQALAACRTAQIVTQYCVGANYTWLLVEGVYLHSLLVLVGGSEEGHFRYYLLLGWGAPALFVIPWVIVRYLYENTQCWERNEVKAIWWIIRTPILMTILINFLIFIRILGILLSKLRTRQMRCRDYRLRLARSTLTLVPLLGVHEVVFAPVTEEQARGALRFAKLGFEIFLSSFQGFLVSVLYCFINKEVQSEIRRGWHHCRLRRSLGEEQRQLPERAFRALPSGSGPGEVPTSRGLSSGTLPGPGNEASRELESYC


Experiments:
[1] = molecular target: T1, human GIP receptor; assay: IC50 with 2% HSA over IC50 with 0.1% casein, 125I-hGIP competition, COS-7/hGIPR
Protocol: (§1) After incubation, the cells were washed twice in ice-cold binding buffer (+/−2% HSA) and lysed using 200 mM NaOH with 1% SDS for 30 min. Nonspecific binding was determined as the binding of radioactive ligand to untransfected cells.

[2] = molecular target: T1, human GIP receptor; assay: 125I-hGIP competition binding, COS-7/hGIPR, 0.1% casein;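 also: nonspecific binding defined as radioligand binding measured on untransfected cells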
Protocol: as §1

[3] = molecular target: T1, human GIP receptor; assay: 125I-hGIP competition binding, COS-7/hGIPR, 2% HSA;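 also: nonspecific binding defined as radioligand binding to untransfected cells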
Protocol: as §1

[4] = molecular target: T1, human GIP receptor; assay: cell-based or functional assay
[5] = molecular target: T1, human GIP receptor; assay: 125I-hGIP competition binding, COS-7 cells expressing hGIPR;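 also: nonspecific binding taken as radioligand bound by untransfected cells, binding buffer with or without 2% HSA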
Protocol: as §1

Row | Binder | Fold change HSA (2%)/Casein (0.1%) [1] [fold] | IC50 [2] [nM] | logIC50 [2] [log M] | IC50 [3] [nM] | logIC50 [3] [log M] | cAMP agonism, Emax [4] | cAMP antagonism [4] [nM] | cAMP antagonism, log [4] [log M] | IC50 [5] [nM] | log IC50 [5] [log M]
1 | TFK(C16 diacid)SDYSIAMDKIHQQDFVNWLLAQK-NH2 (N-terminus assumed; SMILES CC[C@H](C)[C@H](NC(=O)[C@H](CO)NC(=O)[C@H](Cc1ccc(O)cc1)NC(=O)[C@H](CC(=O)O)NC(=O)[C@H](CO)NC(=O)[C@H](CCCCNC(=O)CCCCCCCCCCCCCCC(=O)O)NC(=O)[C@H](Cc1ccccc1)NC(=O)[C@@H](N)[C@@H](C)O)C(=O)N[C@@H](C)C(=O)N[C@@H](CCSC)C(=O)N[C@@H](CC(=O)O)C(=O)N[C@@H](CCCCN)C(=O)N[C@H](C(=O)N[C@@H](Cc1c[nH]cn1)C(=O)N[C@@H](CCC(N)=O)C(=O)N[C@@H](CCC(N)=O)C(=O)N[C@@H](CC(=O)O)C(=O)N[C@@H](Cc1ccccc1)C(=O)N[C@H](C(=O)N[C@@H](CC(N)=O)C(=O)N[C@@H](Cc1c[nH]c2ccccc12)C(=O)N[C@@H](CC(C)C)C(=O)N[C@@H](CC(C)C)C(=O)N[C@@H](C)C(=O)N[C@@H](CCC(N)=O)C(=O)N[C@@H](CCCCN)C(N)=O)C(C)C)[C@@H](C)CC) [AT169 [hGIP(5-30)NH2[I7K]-C16diacid/7]] | 5.8 | 28.8 | -7.5 | 166 | -6.8 | 0 | 37 | -7.4 | 28 | -7.5
2 | TFISDYK(C16 diacid)IAMDKIHQQDFVNWLLAQK-NH2 (N-terminus assumed; SMILES CC[C@H](C)[C@H](NC(=O)[C@H](CCCCNC(=O)CCCCCCCCCCCCCCC(=O)O)NC(=O)[C@H](Cc1ccc(O)cc1)NC(=O)[C@H](CC(=O)O)NC(=O)[C@H](CO)NC(=O)[C@@H](NC(=O)[C@H](Cc1ccccc1)NC(=O)[C@@H](N)[C@@H](C)O)[C@@H](C)CC)C(=O)N[C@@H](C)C(=O)N[C@@H](CCSC)C(=O)N[C@@H](CC(=O)O)C(=O)N[C@@H](CCCCN)C(=O)N[C@H](C(=O)N[C@@H](Cc1c[nH]cn1)C(=O)N[C@@H](CCC(N)=O)C(=O)N[C@@H](CCC(N)=O)C(=O)N[C@@H](CC(=O)O)C(=O)N[C@@H](Cc1ccccc1)C(=O)N[C@H](C(=O)N[C@@H](CC(N)=O)C(=O)N[C@@H](Cc1c[nH]c2ccccc12)C(=O)N[C@@H](CC(C)C)C(=O)N[C@@H](CC(C)C)C(=O)N[C@@H](C)C(=O)N[C@@H](CCC(N)=O)C(=O)N[C@@H](CCCCN)C(N)=O)C(C)C)[C@@H](C)CC) [AT173 [hGIP(5-30)NH2[S11K]-C16diacid/11]] | 7.4 | 8.1 | -8.1 | 60.3 | -7.2 | 0 | 10 | -8 | 8 | -8.1
3 | TFISDYSK(C16 diacid)AMDKIHQQDFVNWLLAQK-NH2 (N-terminus assumed; SMILES CC[C@H](C)[C@H](NC(=O)[C@H](CCCCN)NC(=O)[C@H](CC(=O)O)NC(=O)[C@H](CCSC)NC(=O)[C@H](C)NC(=O)[C@H](CCCCNC(=O)CCCCCCCCCCCCCCC(=O)O)NC(=O)[C@H](CO)NC(=O)[C@H](Cc1ccc(O)cc1)NC(=O)[C@H](CC(=O)O)NC(=O)[C@H](CO)NC(=O)[C@@H](NC(=O)[C@H](Cc1ccccc1)NC(=O)[C@@H](N)[C@@H](C)O)[C@@H](C)CC)C(=O)N[C@@H](Cc1c[nH]cn1)C(=O)N[C@@H](CCC(N)=O)C(=O)N[C@@H](CCC(N)=O)C(=O)N[C@@H](CC(=O)O)C(=O)N[C@@H](Cc1ccccc1)C(=O)N[C@H](C(=O)N[C@@H](CC(N)=O)C(=O)N[C@@H](Cc1c[nH]c2ccccc12)C(=O)N[C@@H](CC(C)C)C(=O)N[C@@H](CC(C)C)C(=O)N[C@@H](C)C(=O)N[C@@H](CCC(N)=O)C(=O)N[C@@H](CCCCN)C(N)=O)C(C)C) [AT174 [hGIP(5-30)NH2[I12K]-C16diacid/12]] | 3.5 | 79.4 | -7.1 | 282 | -6.6 | 0 | 23 | -7.6 | 80 | -7.1
4 | TFIK(C16 diacid)DYSIAMDKIHQQDFVNWLLAQK-NH2 (N-terminus assumed; SMILES CC[C@H](C)[C@H](NC(=O)[C@H](CO)NC(=O)[C@H](Cc1ccc(O)cc1)NC(=O)[C@H](CC(=O)O)NC(=O)[C@H](CCCCNC(=O)CCCCCCCCCCCCCCC(=O)O)NC(=O)[C@@H](NC(=O)[C@H](Cc1ccccc1)NC(=O)[C@@H](N)[C@@H](C)O)[C@@H](C)CC)C(=O)N[C@@H](C)C(=O)N[C@@H](CCSC)C(=O)N[C@@H](CC(=O)O)C(=O)N[C@@H](CCCCN)C(=O)N[C@H](C(=O)N[C@@H](Cc1c[nH]cn1)C(=O)N[C@@H](CCC(N)=O)C(=O)N[C@@H](CCC(N)=O)C(=O)N[C@@H](CC(=O)O)C(=O)N[C@@H](Cc1ccccc1)C(=O)N[C@H](C(=O)N[C@@H](CC(N)=O)C(=O)N[C@@H](Cc1c[nH]c2ccccc12)C(=O)N[C@@H](CC(C)C)C(=O)N[C@@H](CC(C)C)C(=O)N[C@@H](C)C(=O)N[C@@H](CCC(N)=O)C(=O)N[C@@H](CCCCN)C(N)=O)C(C)C)[C@@H](C)CC) [AT170 [hGIP(5-30)NH2[S8K]-C16diacid/8]] | 2.2 | 631 | -6.2 | 1380 | -5.9 | 0 | 507 | -6.3 | 628 | -6.2
5 | TFISDK(C16 diacid)SIAMDKIHQQDFVNWLLAQK-NH2 (N-terminus assumed; SMILES CC[C@H](C)[C@H](NC(=O)[C@H](CO)NC(=O)[C@H](CCCCNC(=O)CCCCCCCCCCCCCCC(=O)O)NC(=O)[C@H](CC(=O)O)NC(=O)[C@H](CO)NC(=O)[C@@H](NC(=O)[C@H](Cc1ccccc1)NC(=O)[C@@H](N)[C@@H](C)O)[C@@H](C)CC)C(=O)N[C@@H](C)C(=O)N[C@@H](CCSC)C(=O)N[C@@H](CC(=O)O)C(=O)N[C@@H](CCCCN)C(=O)N[C@H](C(=O)N[C@@H](Cc1c[nH]cn1)C(=O)N[C@@H](CCC(N)=O)C(=O)N[C@@H](CCC(N)=O)C(=O)N[C@@H](CC(=O)O)C(=O)N[C@@H](Cc1ccccc1)C(=O)N[C@H](C(=O)N[C@@H](CC(N)=O)C(=O)N[C@@H](Cc1c[nH]c2ccccc12)C(=O)N[C@@H](CC(C)C)C(=O)N[C@@H](CC(C)C)C(=O)N[C@@H](C)C(=O)N[C@@H](CCC(N)=O)C(=O)N[C@@H](CCCCN)C(N)=O)C(C)C)[C@@H](C)CC) [AT172 [hGIP(5-30)NH2[Y10K]-C16diacid/10]] | 3.8 | 251 | -6.6 | 955 | -6 | 0 | 259 | -6.6 | 252 | -6.6
6 | TFISK(C16 diacid)YSIAMDKIHQQDFVNWLLAQK-NH2 (N-terminus assumed; SMILES CC[C@H](C)[C@H](NC(=O)[C@H](CO)NC(=O)[C@H](Cc1ccc(O)cc1)NC(=O)[C@H](CCCCNC(=O)CCCCCCCCCCCCCCC(=O)O)NC(=O)[C@H](CO)NC(=O)[C@@H](NC(=O)[C@H](Cc1ccccc1)NC(=O)[C@@H](N)[C@@H](C)O)[C@@H](C)CC)C(=O)N[C@@H](C)C(=O)N[C@@H](CCSC)C(=O)N[C@@H](CC(=O)O)C(=O)N[C@@H](CCCCN)C(=O)N[C@H](C(=O)N[C@@H](Cc1c[nH]cn1)C(=O)N[C@@H](CCC(N)=O)C(=O)N[C@@H](CCC(N)=O)C(=O)N[C@@H](CC(=O)O)C(=O)N[C@@H](Cc1ccccc1)C(=O)N[C@H](C(=O)N[C@@H](CC(N)=O)C(=O)N[C@@H](Cc1c[nH]c2ccccc12)C(=O)N[C@@H](CC(C)C)C(=O)N[C@@H](CC(C)C)C(=O)N[C@@H](C)C(=O)N[C@@H](CCC(N)=O)C(=O)N[C@@H](CCCCN)C(N)=O)C(C)C)[C@@H](C)CC) [AT171 [hGIP(5-30)NH2[D9K]-C16diacid/9]] | 8.3 | 79.4 | -7.1 | 661 | -6.2 | 0 | 35 | -7.5 | 86 | -7.1
